Assay results published in IntAct's records for PubMed 28891236.

B1: Adhesion G protein-coupled receptor B2 (Homo sapiens), O60241 (parent)
chain: MENTGWMGKGHRMTPACPLLLSVILSLRLATAFDPAPSACSALASGVLYGAFSLQDLFPTIASGCSWTLENPDPTKYSLYLRFNRQEQVCAHFAPRLLPLDHYLVNFTCLRPSPEEAVAQAESEVGRPEEEEAEAAAGLELCSGSGPFTFLHFDKNFVQLCLSAEPSEAPRLLAPAALAFRFVEVLLINNNNSSQFTCGVLCRWSEECGRAAGRACGFAQPGCSCPGEAGAGSTTTTSPGPPAAHTLSNALVPGGPAPPAEADLHSGSSNDLFTTEMRYGEEPEEEPKVKTQWPRSADEPGLYMAQTGDPAAEEWSPWSVCSLTCGQGLQVRTRSCVSSPYGTLCSGPLRETRPCNNSATCPVHGVWEEWGSWSLCSRSCGRGSRSRMRTCVPPQHGGKACEGPELQTKLCSMAACPVEGQWLEWGPWGPCSTSCANGTQQRSRKCSVAGPAWATCTGALTDTRECSNLECPATDSKWGPWNAWSLCSKTCDTGWQRRFRMCQATGTQGYPCEGTGEEVKPCSEKRCPAFHEMCRDEYVMLMTWKKAAAGEIIYNKCPPNASGSASRRCLLSAQGVAYWGLPSFARCISHEYRYLYLSLREHLAKGQRMLAGEGMSQVVRSLQELLARRTYYSGDLLFSVDILRNVTDTFKRATYVPSADDVQRFFQVVSFMVDAENKEKWDDAQQVSPGSVHLLRVVEDFIHLVGDALKAFQSSLIVTDNLVISIQREPVSAVSSDITFPMRGRRGMKDWVRHSEDRLFLPKEVLSLSSPGKPATSGAAGSPGRGRGPGTVPPGPGHSHQRLLPADPDESSYFVIGAVLYRTLGLILPPPRPPLAVTSRVMTVTVRPPTQPPAEPLITVELSYIINGTTDPHCASWDYSRADASSGDWDTENCQTLETQAAHTRCQCQHLSTFAVLAQPPKDLTLELAGSPSVPLVIGCAVSCMALLTLLAIYAAFWRFIKSERSIILLNFCLSILASNILILVGQSRVLSKGVCTMTAAFLHFFFLSSFCWVLTEAWQSYLAVIGRMRTRLVRKRFLCLGWGLPALVVAVSVGFTRTKGYGTSSYCWLSLEGGLLYAFVGPAAVIVLVNMLIGIIVFNKLMARDGISDKSKKQRAGSERCPWASLLLPCSACGAVPSPLLSSASARNAMASLWSSCVVLPLLALTWMSAVLAMTDRRSVLFQALFAVFNSAQGFVITAVHCFLRREVQDVVKCQMGVCRADESEDSPDSCKNGQLQILSDFEKDVDLACQTVLFKEVNTCNPSTITGTLSRLSLDEDEEPKSCLVGPEGSLSFSPLPGNILVPMAASPGLGEPPPPQEANPVYMCGEGGLRQLDLTWLRPTEPGSEGDYMVLPRRTLSLQPGGGGGGGEDAPRARPEGTPRRAAKTVAHTEGYPSFLSVDHSGLGLGPAYGSLQNPYGMTFQPPPPTPSARQVPEPGERSRTMPRTVPGSTMKMGSLERKKLRYSDLDFEKVMHTRKRHSELYHELNQKFHTFDRYRSQSTAKREKRWSVSSGGAAERSVCTDKPSPGERPSLSQHRRHQSWSTFKSMTLGSLPPKPRERLTLHRAAAWEPTEPPDGDFQTEV

Variants of: B1
Conditions: with gnaz_human GNAZ

effect of a mutation on the interaction | Variant
with no effect | R1465W

Variants of: B1
Conditions: with gnai1_human GNAI1, P63096
gnai1_human GNAI1, P63096, sequence (P63096 whole entry): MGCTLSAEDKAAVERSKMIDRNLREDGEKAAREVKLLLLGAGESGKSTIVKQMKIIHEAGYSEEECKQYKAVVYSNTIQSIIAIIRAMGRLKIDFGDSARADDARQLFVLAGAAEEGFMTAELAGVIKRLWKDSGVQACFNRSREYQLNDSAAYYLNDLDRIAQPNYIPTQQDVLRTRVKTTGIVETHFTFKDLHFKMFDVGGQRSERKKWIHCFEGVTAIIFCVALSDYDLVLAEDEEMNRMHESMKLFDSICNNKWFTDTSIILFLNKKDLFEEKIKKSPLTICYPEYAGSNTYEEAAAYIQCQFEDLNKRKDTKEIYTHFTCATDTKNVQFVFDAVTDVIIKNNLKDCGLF

effect of a mutation on the interaction | Variant
causing an interaction | R1465W

Variants of: B1
Conditions: with arrb2_rat Arrb2, P29067
arrb2_rat Arrb2, P29067, sequence (P29067 whole entry): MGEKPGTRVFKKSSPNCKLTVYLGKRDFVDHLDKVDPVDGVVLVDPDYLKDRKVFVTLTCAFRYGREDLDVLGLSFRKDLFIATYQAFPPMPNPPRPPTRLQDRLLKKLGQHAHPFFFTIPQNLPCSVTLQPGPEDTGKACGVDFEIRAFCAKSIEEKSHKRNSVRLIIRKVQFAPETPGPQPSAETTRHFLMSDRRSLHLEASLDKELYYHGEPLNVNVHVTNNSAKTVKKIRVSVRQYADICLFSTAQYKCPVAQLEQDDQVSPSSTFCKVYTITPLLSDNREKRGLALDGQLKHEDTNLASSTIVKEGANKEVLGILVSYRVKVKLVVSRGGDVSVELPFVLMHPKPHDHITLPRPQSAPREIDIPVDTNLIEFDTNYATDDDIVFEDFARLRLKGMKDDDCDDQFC

effect of a mutation on the interaction | Variant
with no effect | R1465W

Variants of: B1
Conditions: with sh3g2_human SH3GL2, Q99962
sh3g2_human SH3GL2, Q99962, sequence (Q99962 whole entry): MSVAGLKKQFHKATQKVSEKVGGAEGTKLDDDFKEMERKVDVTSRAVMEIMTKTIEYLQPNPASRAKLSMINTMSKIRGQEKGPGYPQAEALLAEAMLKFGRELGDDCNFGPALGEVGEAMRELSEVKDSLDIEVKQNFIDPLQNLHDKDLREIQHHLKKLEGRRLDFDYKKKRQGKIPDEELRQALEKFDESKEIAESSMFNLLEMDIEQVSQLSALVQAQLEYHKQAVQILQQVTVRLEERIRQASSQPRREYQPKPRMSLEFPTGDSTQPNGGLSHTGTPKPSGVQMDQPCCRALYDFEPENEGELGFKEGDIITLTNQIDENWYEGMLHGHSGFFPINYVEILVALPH

effect of a mutation on the interaction | Variant
disrupting interaction strength | R1465W
